Experimental data as given in the nanobody polyreactivity screen of Harvey et al. (2022).

Assay: yeast display, Sf9 membrane polyspecificity reagent, FACS + sequencing; frameworks hold sequencing errors
Outline: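 Using colony PCR, genes from sorted yeast display clones were amplified, then sequenced on MiSeq at 2 × 250 and filtered by CDR length. The clones had been stained with 10% biotinylated, detergent-solubilized Sf9 membrane reagent for 1 hour at 4 °C and sorted by FACS into low and high (top ~1%) gates on anti-HA and streptavidin fluorescence. Polyreactivity labels come from the gate of origin.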

In the case of “QVQLVESGGGLVQAGGSLRLSCAASGSIFSRYTMGWYRQEPGKERELVAAITSSGGRTYYADSVKGRFTISRDNAKNTVYLQMNSLKPEDTAVYYCAARIPKQQGYGYWGQGTQVTVSS”, the “polyreactivity (PSR sort gate)” value is reported as “high polyreactivity”.
In the case of “QVQLEESAGGLVQAGGSLRLSCAASGRIFKAYAMGWYRQAPGKERELVASISRDGSTSYADSVKGRFTISRDNEKNTVYLQMNSLKPEDTAVFYCAGPSYRTRYYFWGQGTQVNVSS”, the “polyreactivity (PSR sort gate)” value is reported as “high polyreactivity”.
In the case of “QVQLVESGGGLVQAGGSLRLSCAASGSIFKSYAMGWYRQAPGKERELVAAITRSGGSTYYADSVKGRFTISRDNAKNTVYLQMNSLKPEDTAVYYCAKKAPYWSYYYWGQGTQVTVSS”, the “polyreactivity (PSR sort gate)” value is reported as “high polyreactivity”.
With “QVQLVESGGGLVQAGGSLRLSCAASGRTFLRNAMGWYRQAPGKERELVAAITSSGGRTYYADSVKGRFTISRDNAKNTVYLQMNSLKPEDTAVYYCATDTGWPGRDYWGQGTQVTVSS” the “polyreactivity (PSR sort gate)” value was “high polyreactivity”.
With “QVQLVESGGGLVKAGGSLRLSCAASGLTFRNNAMGWYRQAPGIERELVASINSGRSTNYADSVKGRFTISRDNAKNTVYLQMNSLKREDTAVYVCATRYYWYTRDSYDYWGQGTQVTVSS” the “polyreactivity (PSR sort gate)” value was “low polyreactivity”.
For “QVKLVESGGGLVQAGGSLRLSCAASGSTFGINARGWYRQAPGKERELVAAITFISGSTNYADSVKGRFTISRDNAKNTVYLQMNSLKPEDTAVYYCAARCTSTPVYSRYGYWGQGTQVTVSS”, the “polyreactivity (PSR sort gate)” value was “low polyreactivity”.
With “QVQLVESGGGLVQAGGSLRLSCAASGSIFSFYTMGWYRQAPGKERELVARIRSSGGDTYYADSVKGRFTISRDNAKNTVYLQMNSLKPEDTAVYYCARDGYHRDYDYWGQGTQVTVSS” the “polyreactivity (PSR sort gate)” value was “low polyreactivity”.
For “QVQLVESGGGLVQAGGSLRLSCAASGSTLYSYVMGWYRQAPGKERELVAAIRSSGGSTYYADSVKGRFTISRDNAKNTVYLQMNSLKPEDTAVYYCAKEWKVDVASKFLYHYYYWGQGTQVTVSS”, the “polyreactivity (PSR sort gate)” value was “high polyreactivity”.
In the case of “QVQLVESGGVLVQAGGSLRLSCAASARIFAYSVMGWYRQAPGKEREFVAAISWSGGRTYYAHSVKGRFTISRDNAKNTVYLQMNSLKPEDTAVYYCNAGRPLWLAYGMDYWGQGTQVTVSS”, the “polyreactivity (PSR sort gate)” value is reported as “low polyreactivity”.
With “QVQLVESGGGLVQAGGSLRLSCAASGITFGPNAMGWYRQAPGKERELVAAISWRGGSTYYADSVKGRFTISRDYAKNTVYLQMNSLKPEDTAVYYCAKVQIPASYIRYDYWGQGTQVTVSS” the “polyreactivity (PSR sort gate)” value was “low polyreactivity”.
With “QVQLVESGGGLVQAGGSLRLSCAASGYIFRIYAMGWYRQAPGKERELVARISSGGGTNYADSVKGRFTISRDNAKNTVYLQMNSLKPEDTAVYYCNAGYGYQRGGVFFYRMGYWGQGTQVTVSS” the “polyreactivity (PSR sort gate)” value was “high polyreactivity”.
With “QVQLVESGGGLVQAGGSLRLSCAASGTTFTDNAMGWYRQAPGKERELVAAITSGSSTNYADSVKGRFTISRDNAKNTVSLQMNSLKPEDTAVYYCATGQVPQYSTGDYWGQGTQVTVSS” the “polyreactivity (PSR sort gate)” value was “low polyreactivity”.
In the case of “QVQLVDSGGGLVQAGGSLRLSCAASGIIFSDYAMGWYRKAPGIERELVAAISRNGGSTYYADSVKGRFTISRDIAKYTVYLQMNSLKPEDTAVYYCAATRRYRYNWGQGTQVTVSS”, the “polyreactivity (PSR sort gate)” value is reported as “high polyreactivity”.
In the case of “QVQLVESGGGLVQAGGSLRLSCAASGSIFVSNAMGWYRQAPGKERELVAAITARDVSTYYADSVKGRFTISRDNAKNTVYLQMNSLKPEDTAVYYCAGNSSTYPSDDSYDYWGQGTQVTVSS”, the “polyreactivity (PSR sort gate)” value is reported as “low polyreactivity”.
With “QVQLVESGGGLVQAGGSLRLSCAASGITLFHYVMGWYRQAPGKERELVAVISSSGGSTYYADSVKVRFTISRDNAKNSVYLHMNSLKQVDTAVYYGAAKRYNYWGQGTQVTVSS” the “polyreactivity (PSR sort gate)” value was “high polyreactivity”.
With “QVQLVESGGGLVQAGGSLRLSCAASGSIFSFYAMGWYRQAPGKERELVAAIDVSGGSTYYADSVKGRFTISRDNAKNTVYLQMNSLKPEDTAVYYCAKDVRDQYDYWGQGTQVTVSS” the “polyreactivity (PSR sort gate)” value was “low polyreactivity”.
For “QIQLVESGGGLVQAGGSLRLSCAASGFTFYANAMGWYRQAPGKERELVAAISSSGGSTYYADSVKGRFTISRDNAKNTVYLQMNSLKPEDTAVYYCNVYSRHWYRYEFDYWGQGTQVTVSS”, the “polyreactivity (PSR sort gate)” value was “high polyreactivity”.
For “QVQLVESGGGLVQAGGSLRLSCAASGSIFNYYTMGWYRQAPGKERELVAAITWSGGRTYYADSVKGRFTISRDNAKNTVYLQMNSLKPEDTAVYYCNAVAYKPGGGDDFESWGQGTQLTVSS”, the “polyreactivity (PSR sort gate)” value was “high polyreactivity”.
With “QDQLVESGGGLVQAGGSLRLTSAASGFKFEKNAMGWYRQSPGKERQLVARISRSGGSTYYADSVKGRFTISRDNAKNTVYLQMNSLKPEDTADYYCNCLHRSDSGYYYRYDYWGQGTQVTVSS” the “polyreactivity (PSR sort gate)” value was “high polyreactivity”.
In the case of “QVQLVESGGGLVQAGGSLRLSCAASGRIFGYNAMGWYRQAPGKERELVAAINSDGSKNYADSVKGRFTISRDNAKNTVYLQMNSLKPEDTAVYYCAADGHVGPLGVSFDSWGQGSQVTVSS”, the “polyreactivity (PSR sort gate)” value is reported as “low polyreactivity”.
In the case of “QVQLVESGGGLVQAGGSLRLSCAASGNTFPSYVMGWYRQAPGKERELVAAINRGGGTYYADSVKGRFTISRDNAKNTVYLQMNSLKPEVTAVYYCAVRDQRHPYMDYWGQGTQVTVSA”, the “polyreactivity (PSR sort gate)” value is reported as “low polyreactivity”.
With “QVQLVESGGGLVQAGGSLRLSCAASGFTFWYYAMGWYRQAPGKERELVASISRTGGTTYYADSVKGRFTISRDNAKNTVYLQMNSLKPEDTAVYYCNARPKVYYREYDYWGQGTQVTVSS” the “polyreactivity (PSR sort gate)” value was “high polyreactivity”.
With “QVQLVEAGGGLVQAGGSLRLSCAASGYIGGNAMGWYRQAPGKERELVANISRSGGSTYYADSVKGRFTISRDNAKNTVYLQMNSLKPEDTAVYYCAAVSYGKYHWGMYYWGQGTQVTVSS” the “polyreactivity (PSR sort gate)” value was “high polyreactivity”.
With “QVQLVESGGGLVQAVGSLRLSCAASGSTFDHYAMGWYRQAPGKERELVAAISYSGSTTDYADSVKGRFTISRDNAMNTVYLQMISLKPEDTAVYYCAASGDVIQSPMDYWGQGTQVTVSS” the “polyreactivity (PSR sort gate)” value was “low polyreactivity”.
With “QVQLVESGGGLVQAGGSLLLSCAASGSIFGKNAMGWYRQAPGKERELVAAISRSGARTYYADSVKGRFTISRDNAKNTVYLQMNSLKPEDTAVYDCAAVYWWAYRGTYSSLYKHFVYWGQGSQVTVSS” the “polyreactivity (PSR sort gate)” value was “high polyreactivity”.
For “QVQLVESAARLVQAGGSLRLSCAASGFTFKKYAMGWYRQAPGKARELVASITWSGGSTSYADSVKGRFTISRDTAKNTVYLLMNSLKPEDTAVYYCAAATFVYRLRYNRFDYWGQGTQETVSS”, the “polyreactivity (PSR sort gate)” value was “high polyreactivity”.
In the case of “QVQLVESGGGLVQAGGSLRLSCAASGRTRFYAMGWYRQPPGKEREMVAAISGSSGSTYYADSVKGRFTISRDNAKNTVYLQMNSLKPEDTAVYYCAADFWRFYYEYDYWGQGTQVTVSS”, the “polyreactivity (PSR sort gate)” value is reported as “low polyreactivity”.
For “QVQLVESGGGLVQAGGSLRLSCAASGRTFANNVMGWYRQAPGKEREFVAAISRSGGITYYADSVKGRFTISRDNAKNTVYLQMNSLKPEDTAVYYCNAEWPFIYRLYRVQHGNDYWGQGTQVTVSS”, the “polyreactivity (PSR sort gate)” value was “low polyreactivity”.
In the case of “QVQIVESGGGLVQAGGSLRLSCAASGRTLDSNAIGWYRKATRKERVLVAAISSAGSTNYADSVKGRFTISRDNAKNTVYLQMNSLKPEDTAVYYCAADLIGSHDYSGQGTQVTVSS”, the “polyreactivity (PSR sort gate)” value is reported as “low polyreactivity”.
For “QVQLVESGGGLVQAGGSLRLSCAASGRTFYTYAMGWYRQAPGKEREFVAAITGSGGSTYYADSVKGRFTISRDNAKNTVYLQLNSLKPEDTAVYYCNARSPGDVWYYYWGQGTQVTVSS”, the “polyreactivity (PSR sort gate)” value was “low polyreactivity”.
For “QVQLVESGGGLVQAGGSLRLSCAASGSTFYINAMGWSRQAPGKEREFVAAIDWGGGTTYYADSVKGRFTISRDNAMNTVYLQMNRLKPEDTAVYYCAAERNYWSTQYYYWGQGTQVTVSS”, the “polyreactivity (PSR sort gate)” value was “high polyreactivity”.
In the case of “QVQLVESGGGLVQAGGSLRLSCAASGRTNCEYTMGWYRKAPGKERELVAVITKSGGSTYYADSVKGRFTISRDNAKNTVYLQMNSLKPEDTAVYDCAARRYYYLNSRYGYWGQGTQVTVSS”, the “polyreactivity (PSR sort gate)” value is reported as “high polyreactivity”.
For “QVQLEESGGGLVQAGGSLRLSCAASGSIFTVNAMGWYRQATGKQMELVAAISQSGGSTYYADSVKGRFTISRDNAKNTVYLQMNSLKPEDTAVYYCNALLFIVHGDKSQTMDYWGQGTQVTGSS”, the “polyreactivity (PSR sort gate)” value was “low polyreactivity”.
In the case of “QVHIVESGGGLVQAGGRLRLSCADSGTTFSYYTMGWYRQSPGKERELVAAISTSGGSTYYADSVKGRFTISRDNAKNTVYLQMNSLKPEDTAVYYCDARYGRYYKYNYWGQGTQVTVSS”, the “polyreactivity (PSR sort gate)” value is reported as “high polyreactivity”.
In the case of “QVQLVESGGGLVQAGGSLRLSCAASGRFFGRHAMGWYRQAPGKERELVAVISKRGSSTSYADSVKGRFTISRDNAKNTVYLQMNSLKPEDTAVYYCNVFRVAYYATSTYGYDYWGQGTQVTVSS”, the “polyreactivity (PSR sort gate)” value is reported as “high polyreactivity”.
With “QVQLVKSGGGLVQAGGSLRLSCAASGFTFFVYAMGWYRPAPGKERELVAAITSSGGSTYYADSVKGRFTISRDNAKNTVYLQMNSLKPEDTAVYYCAADRYSYLGYPYEYEYWGQGTQGTVSS” the “polyreactivity (PSR sort gate)” value was “low polyreactivity”.
For “QVQLVESGGGIVQAGGSLRLSCAASGRIFGYYAMGWYIQAPGNERELVASISSSGGSTYYADSVKGRFTISRDNAKNTVYLQMKSLKPEDTAVYYCNTASNRYQGWRAEFDYWGQGSQVTVSS”, the “polyreactivity (PSR sort gate)” value was “low polyreactivity”.
In the case of “QVQLVESGGGLVQAGGSLRLSCAASGRIFRYYAMGWYRQAPGKERELVGSITYSGGRTNYADSVKGRFTISRDNAKNTVYLQMNSLKPEDTAVYYCNAAYVYYYPHYRYAPTAVDYDYWGQGTQVTVSS”, the “polyreactivity (PSR sort gate)” value is reported as “low polyreactivity”.
For “QVHLVESGGGLVQAGGSLRLSCAASGRIFGEYAMGWYRQAPGKERELVAAINSCGTSTNYADSVKGRLTFSRDNAKNTVYLQMNSLKPEDTAVYYCNAVGTYRPEYDSWVQGTQVTVSS”, the “polyreactivity (PSR sort gate)” value was “low polyreactivity”.
With “QVQLQESGGGLVQAGGSLRPSCAASGNIFVPFKMGWYRLAPGKEREHVASINRGSTTNYADSVKGRFTISRDNAKNTVYLQMISLKPEDTAVYYCAAIAYPDIPTYLDYDSDYFYWDQGTQVTVSS” the “polyreactivity (PSR sort gate)” value was “high polyreactivity”.
In the case of “QVQLVESGGGLVQAGGSLRLSCAASGSIFKPYSMGWYRQAPGKERELVAAISTRRSSTYYADSVKGRFTFSRDNAKNTVYLQMNSLIQEDTAVYYCAKRRYLWGYEYDSWGQGTQVNVSS”, the “polyreactivity (PSR sort gate)” value is reported as “high polyreactivity”.
With “QVQLVESGGGLVQAGGSLRLSCAASGSTFYFYAKGWYRQAPGRELEWVAAISYSGGSTYYADSVKGRFTISRDNAKNTVYLQMNSLTPEDTAVYSCAADAAFYYDADDEYDYWGQGTQVTVSS” the “polyreactivity (PSR sort gate)” value was “low polyreactivity”.
With “QDQLVESGGGLVQAGGSLRLSCAASGIIFEYYAMGWYRQAPGKEREFVASITSSDGSTYYADSVKGRFTISRDNAKNTVYLQMNILKPEDTAVYYCAAAGDYVVPISSTAGFGGDYWGQGTQVTVSS” the “polyreactivity (PSR sort gate)” value was “low polyreactivity”.
